Results as given in the DeepSol protein solubility set.

experiment: soluble on expression in E. coli; label from the status in PepcDB or PDB records

Soluble on expression in E. coli, not soluble:
VTGPGSPPLAWTELERLVAAGDVDTVIVAFTDMQGRLAGKRISGRHFVDDIATRGVECCSYLLAVDVDLNTVPGYAMASWDTGYGDMVMTPDLSTLRLIPWLPGTALVIADLVWADGSEVAVSPRSILRRQLDRLKARGLVADVATELEFIVFDQPYRQAWASGYRGLTPASDYNIDYAILASSRMEPLLRDIRLGMAGAGLRFEAVKGECNMGQQEIGFRYDEALVTCDNHAIYKNGAKEIADQHGKSLTFMAKYDEREGNSCHIHVSLRGTDGSAVFADSNGPHGMSSMFRSFVAGQLATLREFTLCYAPTINSYKRFADSSFAPTALAWGLDNRTCALRVVGHGQNIRVECRVPGGDVNQYLAVAALIAGGLYGIERGLQLPEPCVGNAYQGADVERLPVTLADAAVLFEDSALVREAFGEDVVAHYLNNARVELAAFNAAVTDWERIRGFERL
MSLNKKVVIGMSGGVDSSVAAYLLKEQGYDVIGVTMKLTPDDAFYTEQEGGCCSLSAVEDARRVAYRIGIPFYVVNFTDIFKEKVIDYFTEEYLNGKTPNPCIACNKYIKFDALLKKAESLGADYIATGHYCRIVEENGRYVIRKSEDEKKDQTYVMYNMTQDQLKHTLMPCGDYKKDRIREIAREIGLNVFDKKDSEEICFIPDNDHGGFIKRECPKAVKTGNFVDKEGKVLGKHKGIIYYTIGQRKGLGIATGKRVFVTNIDAMKNQVVIGEEEEIFENELISFKNNFIPFDKLTEPMEVDAKIRYNAKASKATIYPVDDENVKVKFEKPQRAITKGQSVVFYDGDLLVGGGIIKEGHHHHHH
MWTGKTGNMLGALALTLTDRIRAEVNVSLDAGGETAAALVLLGANPALTVAEIAEALGLTHSGAVRLVDRLCVSGLAERQSGPDARAVHVRLTSAGARQRRRALLRRQAVLDHALQALSPSEEAAFAQMLDKLLRRMLDFPDQGHRFCRLCDEDLCVPHGCPVEERLVELLERQARETGL
MGSDKIHHHHHHMPATAYSAIHGRDIRTLKQCPPVVDAMTYGFMVLLPCDVVVDKGTFSWDWQIPEPVTQNHPRAPLSFHTPGQLAGSPFATTGQAALKFNSFWTIEVEDGWSLFATHPVNREDLPFRLVTGLVDSDRFSDGGINFPAVWTEAGFSGVLAKGTPVAQCFAVPRAAPQLEYEVFDEERQASYARTVADVLSTPGVYRKRFRARRGRSTGE
MGSDKIHHHHHHMTVEFDAARLGPILYYRGLEGDALQLAAMVMLPIGERPETLRTDAGDHAPTLLREIGRSAVWRYDFGLTPSCGSYRLGDQSYDVQTDLHGDMRIAFASCNGEEKGDLDRDQEERNRMWAHMCAEHRRAPFALLLQGGDQIYADEATEGHPLSEDWPDKAGRPRNAEELKDLADHLRLRFAERYVQALFGEAPSWIMARVPTLAIWDDHDICDGWGSLYRSKTHSEVGQCLYAVAREMYLLFQHAAVEGDIPDLFMDETGTSLSWQRALPGVKLLAPDLRAERGRRQVLGAYGWSAVEAMKPGSEHTFVISSVPLLGPRLSLVEGLMLMIPTMQKYEDDLRDQWQSRAHRKEWIRMLKQVIAWREEAPVTILSGEIHLATRAEMGPDETRVHQLVASGIAHRAPPQSYARSLGTLAGLGDAPVSGHPIRIHPLPGQSQRYTAERNYLELRRTHGKWHAVWHLEESGDTVPMVLE
MSKSALHAFIDRARADEDFRSKLAHLDPNQIIEFAGQHGFLFSDEIKGRFINRWSGVYFCPQAIEVGQLCPALVPDGYKNLIHYAQSTCSSSNLSEEERDFRSGIKY
MKTPDQKSCETAESSNTKYSPNLVIDGAAVSNEDVAGKVADLEYAHSFPDLVLNVEKHDDEYIKSFLLQRNWYHGMMFGKAAEKLLKWESSYIVRRSMGPTHKFLCITARVEDKYFHFQFNWNSEGWSCPILYEKFPRIPVKRYEHIYQLLDAWSLVVNQLVPISRCSMILQHSSIALENQLGRGAFGEVIKAKYVPMGATVPTEVAVKRLIGDAKRPQLVDFCNEANIMTLLEHKNIVALYGFASLQQPIMLVIEFVPGGDLRKYLQRTPNVPSKQIIKFAMEIASGMKHLSSKNVIHRDLAARNCLITKELNVKISDFGLSVNESETKMKSLKKAPIRWLSPETFSKGLFNEKTDVWSYGVLLTELMTRCAHDPLWPKNLKQVQKWIKESEHPHKIEDGDPSELKEIVDACCAKIPSVRINFREVKNRLAMLQQKKKTLELDAQKPMSPNPAIEKKKSEDRRNNMDRRNKTNRKSHTSTDRTNSNNTLTRKKSRDAGKNDRSNERKNKAKGGNLSVDGTNKSSRRKEQKGAVGISQEMVTK
